Experimental data as given in the RNAGym collection of RNA variant scans (doi:10.7554/elife.80360).

B1: HDV Ribozyme (parent)
chain: GGCCGGCAUGGUCCCAGCCUCCUCGCUGGCGCCGGCUGGGCAACAUUCCGAGGGGACCGUCCCCUCGGUAAUGGCGAAUGGGACCCA

Variants of: B1
Assay: self-cleavage, relative activity (ratio to wild type); higher = more cleavage; co-transcriptional

Point of comparison: GGCCGGCAUGGUCCCAGCCGCCUCUCUGGCGCCGGCUGGGCAACAUUCCGAGGGGACCGUCCCCUCGGUAAUGGCGAAUGGGACCCA [U20G G25U], self-cleavage 0.166. Against it:
- GGCCGGCAUGGUCCCAGCCGCCUCGCUGGCGGCGGCUGGGCAACAUUCCGAGGGGACCGUCCCCUCGGUAAUGGCGAAUGGGACCCA [U20G C32G] — lower, 0.0475
- GGCCGGCAUGGUCCCAGCCUACUCGCUAGCGCCGGCUGGGCAACAUUCCGAGGGGACCGUCCCCUCGGUAAUGGCGAAUGGGACCCA [C21A G28A] — lower, 0.0268
- GGCCGGCAUGGUCCCAGCCUACUCGCUGGCGCCGGCUGGGCAACAUUCCGAGGGGACCGUCCCCUCGGUAAUGGCGAAUGGGAUCCA [C21A C84U] — lower, 0.0489
- GGCCGGCAUGGUCCCAGCCGCCUCGCUGGCGCCGGCUGGGCAACAUGCCGAGGGGACCGUCCCCUCGGUAAUGGCGAAUGGGACCCA [U20G U47G] — higher, 0.185
- GGCCGGCAUGGUCCCAGCCUACUCGCUGGCGCCGGCUGGGCAACAUUCCGAGGGGACCGUCCCCUCGGUAAUGGUGAAUGGGACCCA [C21A C75U] — lower, 0.0297
- GGCCGGCAUGGUCCCAGCCGCCUCGCUGGCGCCGGCUGGGCAACAUUCCGAGGGGACCGUCCCCCCGGUAAUGGCGAAUGGGACCCA [U20G U65C] — higher, 0.222
- GGCCGGCAUGGUCCCAGCCGCCUCGCUGGCGCCGGCUGGGCAACAUUCCGAGGGGACCGUCCCCACGGUAAUGGCGAAUGGGACCCA [U20G U65A] — lower, 0.138
- GGCCGGCAUGGUCCCAGCCUACUCGCUGGCGCGGGCUGGGCAACAUUCCGAGGGGACCGUCCCCUCGGUAAUGGCGAAUGGGACCCA [C21A C33G] — lower, 0.0554
- GGCCGGCAUGGUCCCAGCCUACUCGCUGGCGCCGGCUGGGCAACAUUCCGAGGGGACCGUCCCCUAGGUAAUGGCGAAUGGGACCCA [C21A C66A] — lower, 0.0755
- GGCCGGCAUGGUCCCAGCCUACUCGCUGGCGCCGGCUGGGCAACAUUCCGAGGGGACCGUCCCCUUGGUAAUGGCGAAUGGGACCCA [C21A C66U] — lower, 0.0683
- GGCCGGCAUGGUCCCAGCCGCCUCGCUGGCGCCGGCGGGGCAACAUUCCGAGGGGACCGUCCCCUCGGUAAUGGCGAAUGGGACCCA [U20G U37G] — lower, 0
- GGCCGGCAUGGUCCCAGCCGCCUCGCUGGCGCCGGCUGGGCAACAUUCCGAGUGGACCGUCCCCUCGGUAAUGGCGAAUGGGACCCA [U20G G53U] — higher, 0.208
- GGCCGGCAUGGUCCCAGCCUACUCGCUGGCGCCGGAUGGGCAACAUUCCGAGGGGACCGUCCCCUCGGUAAUGGCGAAUGGGACCCA [C21A C36A] — lower, 0.117
- GGCCGGCAUGGUCCCAGCCUACUCGCUGGCGCCGGCUGGGCGACAUUCCGAGGGGACCGUCCCCUCGGUAAUGGCGAAUGGGACCCA [C21A A42G] — lower, 0.158
- GGCCGGCAUGGUCCCAGCCGCCUCGCUGGCGCCGGCUGGGCAACAAUCCGAGGGGACCGUCCCCUCGGUAAUGGCGAAUGGGACCCA [U20G U46A] — higher, 0.192
- GGCCGGCAUGGUCCCAGCCGCCUCGCUGGCGCCGGCUUGGCAACAUUCCGAGGGGACCGUCCCCUCGGUAAUGGCGAAUGGGACCCA [U20G G38U] — lower, 0.0573
- GGCCGGCAUGGUCCCAGCCGCCUCGCUGGCGCCGGCUGGGCAACAUUCCGAGGGGACCGUACCCUCGGUAAUGGCGAAUGGGACCCA [U20G C61A] — lower, 0.142
- GGCCGGCAUGGUCCCAGCCGCCUCGCUGGCGCCGGCUGGGCAACAUUCCGAGGUGACCGUCCCCUCGGUAAUGGCGAAUGGGACCCA [U20G G54U] — lower, 0.125
- GGCCGGCAUGGUCCCAGCCGCCUCGCUGGCGCCGGCUGGGCAACAUUCCGAGGAGACCGUCCCCUCGGUAAUGGCGAAUGGGACCCA [U20G G54A] — higher, 0.201
- GGCCGGCAUGGUCCCAGCCUACUCGCUGGCGCCGGCUGGGCAACAUUCCGAGGGGACCGUCCCCUCGCUAAUGGCGAAUGGGACCCA [C21A G68C] — lower, 0
- GGCCGGCAUGGUCCCAGCCUACUCGCUGGCGCCGGCUGGGCAACAUUCCGAGGGGACCGUCCCCUCGGUAAUGACGAAUGGGACCCA [C21A G74A] — lower, 0.0536
- GGCCGGCAUGGUCCCAGCCUACUCGCUGGCACCGGCUGGGCAACAUUCCGAGGGGACCGUCCCCUCGGUAAUGGCGAAUGGGACCCA [C21A G31A] — lower, 0.0482
- GGCCGGCAUGGUCCCAGCCGCCUCGCUGGCGCCGGCUGGGCAACAUUCCGAGGGGACCGUCCCCUCGGUAAUGGCGAAUGGAACCCA [U20G G82A] — lower, 0.123
- GGCCGGCAUGGUCCCAGCCUACUCGCUGGCGCCUGCUGGGCAACAUUCCGAGGGGACCGUCCCCUCGGUAAUGGCGAAUGGGACCCA [C21A G34U] — lower, 0.0647
- GGCCGGCAUGGUCCCAGCCUACUCGCUGGCGCCGGCUGGGCAACAUUCCGAGGAGACCGUCCCCUCGGUAAUGGCGAAUGGGACCCA [C21A G54A] — lower, 0.0437
- GGCCGGCAUGGUCCCAGCCGCCUCGCUGGCACCGGCUGGGCAACAUUCCGAGGGGACCGUCCCCUCGGUAAUGGCGAAUGGGACCCA [U20G G31A] — lower, 0
- GGCCGGCAUGGUCCCAGCCGCCUCGCUGGCCCCGGCUGGGCAACAUUCCGAGGGGACCGUCCCCUCGGUAAUGGCGAAUGGGACCCA [U20G G31C] — lower, 0
- GGCCGGCAUGGUCCCAGCCGCCUCGCUGGCGCCGGCUGGGCAACAUUCCGAGGGGACCGUCCCCUCGGUAAUGGUGAAUGGGACCCA [U20G C75U] — lower, 0.0875
- GGCCGGCAUGGUCCCAGCCGCCUCGCUGGCGCCGGCUGGGCAACAUUCCGAGGGGACCGUCCCUUCGGUAAUGGCGAAUGGGACCCA [U20G C64U] — higher, 0.291
- GGCCGGCAUGGUCCCAGCCGCCUCGCUGGCGCCGGCUGGGCAACAUUCCGAGGGGACCGUCCCCUGGGUAAUGGCGAAUGGGACCCA [U20G C66G] — higher, 0.511
- GGCCGGCAUGGUCCCAGCCUACUCGCUGGCGCCGGCUGGGCAACAUUCCGAGGGGACCGUCCGCUCGGUAAUGGCGAAUGGGACCCA [C21A C63G] — lower, 0.0978
- GGCCGGCAUGGUCCCAGCCGCCUCGCUGGCGCGGGCUGGGCAACAUUCCGAGGGGACCGUCCCCUCGGUAAUGGCGAAUGGGACCCA [U20G C33G] — higher, 0.185
- GGCCGGCAUGGUCCCAGCCGCCUCGCUGGCGCCGGCUGGGCAACAUUCCGAGGGGACCGUCCCCUCGGUAAAGGCGAAUGGGACCCA [U20G U72A] — lower, 0.0875
- GGCCGGCAUGGUCCCAGCCGCCUCGCUGGCGCCGGCUGGGCAACAUUCCGAGGGGACCGCCCCCUCGGUAAUGGCGAAUGGGACCCA [U20G U60C] — lower, 0.111
- GGCCGGCAUGGUCCCAGCCUACUCGCUGGCGGCGGCUGGGCAACAUUCCGAGGGGACCGUCCCCUCGGUAAUGGCGAAUGGGACCCA [C21A C32G] — lower, 0.0426
- GGCCGGCAUGGUCCCAGCCUACUCGCUGGCGCCGGCUGGGCAACAUUCCGAGUGGACCGUCCCCUCGGUAAUGGCGAAUGGGACCCA [C21A G53U] — lower, 0.135
- GGCCGGCAUGGUCCCAGCCGCCUCGCUGGCGCCGGCUGGGCAACAUUCCGAGGGGACCGUCCCCUCGGGAAUGGCGAAUGGGACCCA [U20G U69G] — lower, 0.0831
- GGCCGGCAUGGUCCCAGCCUACUCUCUGGCGCCGGCUGGGCAACAUUCCGAGGGGACCGUCCCCUCGGUAAUGGCGAAUGGGACCCA [C21A G25U] — lower, 0.113
- GGCCGGCAUGGUCCCAGCCGCCUCGCUGGCGCCGGCUGGGCAACAUUCCGAGGGGACCUUCCCCUCGGUAAUGGCGAAUGGGACCCA [U20G G59U] — higher, 0.231
- GGCCGGCAUGGUCCCAGCCGCCUCGCUGGCGCCGGCUGGGCAACAUUCCGAGGGGACCCUCCCCUCGGUAAUGGCGAAUGGGACCCA [U20G G59C] — higher, 0.361
- GGCCGGCAUGGUCCCAGCCGCCUCGCUGGCGCCGGCUGGGCAACAUUCCGAGGGGACCGUCCCCUCGGUAAUGUCGAAUGGGACCCA [U20G G74U] — lower, 0
- GGCCGGCAUGGUCCCAGCCUACUCGCUGGCGCCGGCUGGGCAACAUUGCGAGGGGACCGUCCCCUCGGUAAUGGCGAAUGGGACCCA [C21A C48G] — lower, 0.122
- GGCCGGCAUGGUCCCAGCCUACUCGCUGGCGCCGGCUGGGCAACAUUCCGAGGGGACCGUCCCCUCGGUGAUGGCGAAUGGGACCCA [C21A A70G] — lower, 0
- GGCCGGCAUGGUCCCAGCCUACUCGCUGGCGCCGGCUGGGCAACAUUCCGAGGGGUCCGUCCCCUCGGUAAUGGCGAAUGGGACCCA [C21A A56U] — lower, 0.108
- GGCCGGCAUGGUCCCAGCCUACUCGCUGGCGCCGGCUAGGCAACAUUCCGAGGGGACCGUCCCCUCGGUAAUGGCGAAUGGGACCCA [C21A G38A] — lower, 0.0237
- GGCCGGCAUGGUCCCAGCCGCCUCGCUGGCGCCGGCUGGGCAAUAUUCCGAGGGGACCGUCCCCUCGGUAAUGGCGAAUGGGACCCA [U20G C44U] — higher, 0.192
- GGCCGGCAUGGUCCCAGCCGCCUCGCUGGCGCCGGCUGGGCAAGAUUCCGAGGGGACCGUCCCCUCGGUAAUGGCGAAUGGGACCCA [U20G C44G] — lower, 0
- GGCCGGCAUGGUCCCAGCCUACUCGCUGGCGCCGGCUGGGAAACAUUCCGAGGGGACCGUCCCCUCGGUAAUGGCGAAUGGGACCCA [C21A C41A] — lower, 0.121
- GGCCGGCAUGGUCCCAGCCGCCUCGCUGGCGCCGGCUGGGCAACAUUCCGAGGGGACCGUCCCCUCGGUAAUGGCUAAUGGGACCCA [U20G G76U] — higher, 0.388
- GGCCGGCAUGGUCCCAGCCUACUCGCUGGCGCCGGCUGGGCAACAUUCUGAGGGGACCGUCCCCUCGGUAAUGGCGAAUGGGACCCA [C21A C49U] — lower, 0.0272
- GGCCGGCAUGGUCCCAGCCUACUCGCUGGCGCCGGCUGGGCAACAUUCAGAGGGGACCGUCCCCUCGGUAAUGGCGAAUGGGACCCA [C21A C49A] — lower, 0.157
- GGCCGGCAUGGUCCCAGCCGCCUCGCUGGCGCCGGCUGGGCAACAUUCCGAGGGGACCGUCCCCUCCGUAAUGGCGAAUGGGACCCA [U20G G67C] — higher, 0.554
- GGCCGGCAUGGUCCCAGCCUACUCGCUGACGCCGGCUGGGCAACAUUCCGAGGGGACCGUCCCCUCGGUAAUGGCGAAUGGGACCCA [C21A G29A] — lower, 0.0875
- GGCCGGCAUGGUCCCAGCCUACUCGCUGCCGCCGGCUGGGCAACAUUCCGAGGGGACCGUCCCCUCGGUAAUGGCGAAUGGGACCCA [C21A G29C] — lower, 0.0604
- GGCCGGCAUGGUCCCAGCCGCCUCGCUGGCGCCGGCUGGGCAACAUUCCGAGGGGACCGUCCCCUCGGUAAUAGCGAAUGGGACCCA [U20G G73A] — lower, 0.113
- GGCCGGCAUGGUCCCAGCCUACUCGCUGGCGCCGGCUGGACAACAUUCCGAGGGGACCGUCCCCUCGGUAAUGGCGAAUGGGACCCA [C21A G40A] — lower, 0.0647
- GGCCGGCAUGGUCCCAGCCGCCUCGCUGGCGCCGGCUGGGAAACAUUCCGAGGGGACCGUCCCCUCGGUAAUGGCGAAUGGGACCCA [U20G C41A] — lower, 0.145
- GGCCGGCAUGGUCCCAGCCGCCUCGCUGGCGCCAGCUGGGCAACAUUCCGAGGGGACCGUCCCCUCGGUAAUGGCGAAUGGGACCCA [U20G G34A] — lower, 0
- GGCCGGCAUGGUCCCAGCCUACUCGCUGGCGCCGGCUGGGCAACAUUCCGAGGGGACCGUCACCUCGGUAAUGGCGAAUGGGACCCA [C21A C62A] — higher, 0.185
- GGCCGGCAUGGUCCCAGCCUACUCGCUGGCGCCGGCUGGGCAACAUUCCGAGGGGACCGUCCCCUCGGUAAUAGCGAAUGGGACCCA [C21A G73A] — lower, 0.161
- GGCCGGCAUGGUCCCAGCCUACUCGCUGGCGCCGGCUGGGCAACAUUCCGAGGGGACCGUCCCCUCGGUAAUUGCGAAUGGGACCCA [C21A G73U] — lower, 0.0528
- GGCCGGCAUGGUCCCAGCCUACUCGCUGGCGCCGGCUGGGCAACAUUCCGAGGGGACCCUCCCCUCGGUAAUGGCGAAUGGGACCCA [C21A G59C] — lower, 0.116
- GGCCGGCAUGGUCCCAGCCGCCUCGCUGGCGCCGGCUGGGCAACAUUCCGAGGGUACCGUCCCCUCGGUAAUGGCGAAUGGGACCCA [U20G G55U] — higher, 0.332
